According to paper PMC12101541:

Legend:
[1] = biological target: GGlFGGn-TgSkp1 (fully glycosylated TgSkp1, GalGlcFucGalGlcNAc glycan at Hyp154) (Toxoplasma gondii); assay: AUC; sedimentation velocity, 50,000 rpm, 20 °C, 50 mM K phosphate (pH 7.4), 25 mM KCl (standard buffer); Sw isotherm fitted with a monomer-dimer self-association model (SedPhat); dimer to monomers
[2] = biological target: TgSkp1Δloop (TgSkp1 with the internal disordered loop replaced by GGSG) (Toxoplasma gondii); assay: AUC; sedimentation velocity as in the standard experiment but with 600 mM KCl (high salt, ionic strength of 710 mM); Sw isotherm, monomer-dimer model; dimer to monomers
[3] = biological target: TgSkp1Δloop (TgSkp1 with the internal disordered loop replaced by GGSG) (Toxoplasma gondii); assay: AUC; sedimentation velocity, 50,000 rpm, 20 °C, 50 mM K phosphate (pH 7.4), 25 mM KCl (standard buffer); Sw isotherm fitted with a monomer-dimer self-association model (SedPhat); dimer to monomers
[4] = biological target: TgSkp1ΔCTR (TgSkp1 lacking the C-terminal region) (Toxoplasma gondii); assay: as above
[5] = biological target: TgSkp1-poly-Ser (TgSkp1 with the CTR replaced by poly-serine) (Toxoplasma gondii); assay: as above
[6] = biological target: TgSkp1ΔloopΔCTR (TgSkp1 with the internal loop replaced by GGSG and the CTR deleted) (Toxoplasma gondii); assay: AUC; sedimentation velocity as in the standard experiment but with 600 mM KCl (high salt, ionic strength of 710 mM); Sw isotherm, monomer-dimer model; dimer to monomers
[7] = biological target: TgSkp1ΔloopΔCTR (TgSkp1 with the internal loop replaced by GGSG and the CTR deleted) (Toxoplasma gondii); assay: AUC; sedimentation velocity, 50,000 rpm, 20 °C, 50 mM K phosphate (pH 7.4), 25 mM KCl (standard buffer); Sw isotherm fitted with a monomer-dimer self-association model (SedPhat); dimer to monomers
[8] = biological target: full-length TgSkp1 (Skp1 from Toxoplasma gondii), unmodified (Toxoplasma gondii); assay: as above

GGlFGGn-TgSkp1 (fully glycosylated TgSkp1, GalGlcFucGalGlcNAc glycan at Hyp154) (natural protein)
Kd [1]: 400 nM | stoichiometry N [1]: 2

TgSkp1Δloop (TgSkp1 with the internal disordered loop replaced by GGSG) (natural protein)
Kd [2]: 8500 nM | Kd [3]: 200 nM | stoichiometry N [3]: 2

TgSkp1ΔCTR (TgSkp1 lacking the C-terminal region) (domain or fragment)
Kd [4]: 900 nM | stoichiometry N [4]: 2

TgSkp1-poly-Ser (TgSkp1 with the CTR replaced by poly-serine)
Kd [5]: 900 nM | stoichiometry N [5]: 2

TgSkp1ΔloopΔCTR (TgSkp1 with the internal loop replaced by GGSG and the CTR deleted) (domain or fragment)
Kd [6]: 1900 nM | Kd [7]: 2400 nM | stoichiometry N [7]: 2

full-length TgSkp1 (Skp1 from Toxoplasma gondii), unmodified (natural protein)
Kd [8]: 50 nM | degree of dissociation at 300 nM [8]: 18% | stoichiometry N [8]: 2
